From patent publication US20210063414A1, “METHODS FOR PREVENTING AND/OR TREATING BONE LOSS CONDITIONS BY MODULATING IRISIN” (Dana-Farber Cancer Institute, Inc., priority 2018, published 2021)

How the values were obtained:
Assay in all cases: Crosslinking/co-immunoprecipitation/mass spectrometry (TMT quantitative proteomics) to identify irisin receptors
Format in all cases: binding
[1] = target: T1, MLO-Y4 cell surface proteins (Mus musculus, UniProt Q08189); settings: co-precipitated protein Tgm3 (TGM3_MOUSE)
T1 construct: endogenous in cells; host or cells: MLO-Y4
T1 sequence (Q08189 1-693): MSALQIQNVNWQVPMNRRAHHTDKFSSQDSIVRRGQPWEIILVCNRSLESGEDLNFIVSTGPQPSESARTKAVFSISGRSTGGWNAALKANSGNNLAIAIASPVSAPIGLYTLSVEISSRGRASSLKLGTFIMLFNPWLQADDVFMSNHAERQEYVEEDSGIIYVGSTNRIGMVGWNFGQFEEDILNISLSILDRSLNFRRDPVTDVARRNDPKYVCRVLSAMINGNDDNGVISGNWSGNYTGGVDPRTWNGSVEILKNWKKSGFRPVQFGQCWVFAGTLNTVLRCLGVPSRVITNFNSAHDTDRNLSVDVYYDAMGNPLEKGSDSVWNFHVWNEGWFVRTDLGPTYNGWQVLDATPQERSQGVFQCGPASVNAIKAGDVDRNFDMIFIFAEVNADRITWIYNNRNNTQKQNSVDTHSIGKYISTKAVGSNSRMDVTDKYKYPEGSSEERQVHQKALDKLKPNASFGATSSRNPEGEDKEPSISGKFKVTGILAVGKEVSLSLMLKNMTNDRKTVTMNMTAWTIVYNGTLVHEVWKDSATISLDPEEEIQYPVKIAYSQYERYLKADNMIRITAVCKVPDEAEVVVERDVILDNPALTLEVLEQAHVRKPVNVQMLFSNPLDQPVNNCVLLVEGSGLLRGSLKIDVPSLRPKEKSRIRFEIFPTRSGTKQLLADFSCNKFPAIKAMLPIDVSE
Procedure, shortened: (§1)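 Relative protein abundance came from 6-plex TMT MS3 quantitation on an Orbitrap Fusion Lumos, after in-gel trypsin digestion of Coomassie-stained SDS-PAGE lanes. Input was a Ni-NTA pulldown (250 mM imidazole elution) of lysates from murine MLO-Y4 cells. These cells were treated on ice with His-tagged irisin or adipsin (10 nM, 20 min) in serum-free medium, then crosslinked with 1.5 mM DTSSP for 30 min.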

[2] = target: T2, MLO-Y4 cell surface proteins (Mus musculus, UniProt P62880); settings: co-precipitated protein Gnb2 (GBB2_MOUSE)
T2 construct: endogenous in cells; host or cells: MLO-Y4
T2 sequence (P62880 whole entry): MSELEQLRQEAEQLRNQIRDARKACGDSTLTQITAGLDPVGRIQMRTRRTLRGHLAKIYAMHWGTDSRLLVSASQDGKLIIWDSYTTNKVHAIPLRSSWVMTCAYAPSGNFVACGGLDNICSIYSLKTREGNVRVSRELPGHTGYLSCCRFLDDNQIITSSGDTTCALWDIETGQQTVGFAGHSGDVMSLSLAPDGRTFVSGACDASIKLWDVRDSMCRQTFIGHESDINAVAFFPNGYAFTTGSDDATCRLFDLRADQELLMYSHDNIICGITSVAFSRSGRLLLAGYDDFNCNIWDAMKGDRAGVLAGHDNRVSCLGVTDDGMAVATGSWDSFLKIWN
Procedure, shortened: as §1

[3] = target: T3, MLO-Y4 cell surface proteins (Mus musculus, UniProt P16460); settings: co-precipitated protein Ass1 (ASSY_MOUSE)
T3 construct: endogenous in cells; host or cells: MLO-Y4
T3 sequence (P16460 1-412): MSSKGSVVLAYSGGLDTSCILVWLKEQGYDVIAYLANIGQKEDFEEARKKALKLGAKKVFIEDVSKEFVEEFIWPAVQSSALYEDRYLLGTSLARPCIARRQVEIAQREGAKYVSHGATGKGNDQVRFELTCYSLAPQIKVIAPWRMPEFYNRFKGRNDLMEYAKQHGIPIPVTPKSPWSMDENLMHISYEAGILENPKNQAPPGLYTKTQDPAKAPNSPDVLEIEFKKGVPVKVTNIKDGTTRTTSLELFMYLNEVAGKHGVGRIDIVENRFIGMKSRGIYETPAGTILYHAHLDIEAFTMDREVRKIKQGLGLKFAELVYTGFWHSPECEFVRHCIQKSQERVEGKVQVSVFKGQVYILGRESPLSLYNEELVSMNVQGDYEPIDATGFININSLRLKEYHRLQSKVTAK
Procedure, shortened: as §1

B1: irisin: secreted cleaved form of FNDC5; recombinant human/mouse irisin with C-terminal his tag produced in HEK293 cells (protein)
chain: DSPSAPVNVTVRHLKANSAVVSWDVLEDEVVIGFAISQQKKDVRMLRFIQEVNTTTRSCALWDLEEDTEYIVHVQAISIQGQSPASEPVLFKTPREAEKMASKNKDEVTMKE
modifications: left off: small tags and cut ends
notes: secreted cleaved form of FNDC5; recombinant human/mouse irisin with C-terminal his tag produced in HEK293 cells
[1]
  TMT signal-to-noise ratio: 45.8379
  irisin/adipsin TMT signal-to-noise ratio: 0.167
[2]
  TMT signal-to-noise ratio: 165.95
  irisin/adipsin TMT signal-to-noise ratio: 0.563
[3]
  TMT signal-to-noise ratio: 3.2933
  irisin/adipsin TMT signal-to-noise ratio: 0.012
